Reference: the RNAGym collection of RNA variant scans (doi:10.1073/pnas.2313332121)

B1: TPR t1 (parent)
chain: GACCAAUCUGCCCUCAGAGCUCGAGAACAUCUUCGGAUGCAGAGGAGGCAGGCUUCGGUGGCGCGAUAGCGCCAACGUCCUCAACCUCCAAUGCAUCCCACCACAUGAUGAUGCCUGAAGAGCCUUGGUUUUUUG

Variants of: B1
Assay: polymerase ribozyme fitness, log enrichment relative to wild type (log ratio); higher = more active; in vitro selection for triplet polymerase activity
Procedure, shortened: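 PCR was used to build mutant libraries for each subunit of a heterodimeric triplet polymerase ribozyme, which were then transcribed. A single in vitro selection round, in triplicate, used a frozen incubation at −7 °C and recovered extended constructs by gel excision, streptavidin beads and RT-PCR. Fitness is the logarithm of genotype enrichment relative to wild-type enrichment, averaged over replicates with inverse-variance weights. The logarithm is base 2, and after Illumina sequencing only genotypes with ≥10 input reads and ≥1 read per output were kept.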

| Variant | polymerase ribozyme fitness (log ratio) |
| --- | --- |
| G47C G117U | -4.33 |
| G47C C53U C70A C124A | -1.6 |
| G47U G61A C123A | -0.25 |
| A46U C104A | -2.88 |
| G48A C80U U96A C114U | -3.73 |
| G48A G61A | -0.0923 |
| G48A G120C | 0.921 |
| G47A G58C G113A A121C U125C U131C | -0.547 |
| G48C G135U | -1.05 |
| A46U C72U U96A G120A | -1.15 |
| G48A G110C | -4.33 |
| A46C G93U U106A | -1.93 |
| G47A G60U U133G | -0.844 |
| G47U U125G | -2.32 |
| G48A C72A C115A | -0.421 |
| G48C G63A G113U C123A | -5.64 |
| G47A A121U | 1.38 |
| A46C G58A C62U | -1.93 |
| A46U G71C C73U | -3.63 |
| G47U C49U C62U | -4.79 |
| A46U G57U C94A | -2.21 |

| Variant | polymerase ribozyme fitness (log ratio) |
| --- | --- |
| G48A G63A U133G | -1.13 |
| A46U C56G G61U A105U C123U | -5.93 |
| G47A C94A | -1.89 |
| A46U C86A A118G | -0.968 |
| G48A G69U | 1.02 |
| G48A G69C | -1.33 |
| G48C C79G | -4.27 |
| G47C C56A | -2.47 |
| G47A G51C C98A C102U C115U G127U | -7.84 |
| A46U C70U C79G U130C | -4.73 |
| G47A C62U U112C C114U A118G | -3.76 |
| G48A U59A | -0.703 |
| A46G G47A G52U | -2.7 |
| G47C G71A | -3.14 |
| G47U A66C A95C | -4.27 |
| G48U C53U G93C | -1.66 |
| A46U G110A | -2.4 |
| G48U C49U G60C A84U U129A U134G | -1.92 |
| G47U C64A U116G C124U | -6.49 |
| G48U C72A C97G | -5.25 |
| G47A G61A | -2.4 |

| Variant | polymerase ribozyme fitness (log ratio) |
| --- | --- |
| G47C C49U | -2.12 |
| G48A C72U C94U G127A | -2.68 |
| A46U G58A A83G A84C | -2.18 |
| A46U G48A G52A C62A C88U C124U | -7.18 |
| A46U A83G G110A | -3.02 |
| G48A C56G C85G C94A A105G | -6.42 |
| A46U A121C | 1.4 |
| A46U G71U C89U C115A | -2.17 |
| G47U A95U | -1.91 |
| G47A G60C G69U A119U | -2.55 |
| G47U G61A C85A | -1.18 |
| G47C G52C G120U C123A | -1.92 |
| A46U C73U C123G G127A | -1.5 |
| G48C G61C C123G | -0.406 |
| G48A C124U | 1.15 |
| G47U U116C | -1.74 |
| G48A C73U C82G | -0.747 |
| G47C C62G | -4.1 |
| G48A A75G G120A | 0.0402 |
| A46G U112A | 1.3 |
| A46G C56A A91U | -2.49 |

| Variant | polymerase ribozyme fitness (log ratio) |
| --- | --- |
| G48C G60A G93A | -0.836 |
| G48U C72G C86A U125G G127C | -4.47 |
| G48A C104U | -1.25 |
| G48A C94G | -1.71 |
| G48U C56U C70U A84G A91U | -4.84 |
| G48C G93A C99A G113C | -7.38 |
| G48A C85G C89A U96C | -2.26 |
| A46U U130G | -1.6 |
| G47A C82G U106A | -1.42 |
| G47A G48A U129A | -2.41 |
| G47C C64U | -2.48 |
| G47A G69U C98U C99U | -2.9 |
| G48U A74U | -0.741 |
| G48A G135U | -1.08 |
| G48A C114A | -2.8 |
| A46G G113A | -1.46 |
| A46U G107C | -6.11 |
| G47U A50G | -1.99 |
| A46U G71U A118G | -0.0825 |
| G48C C97G | -4.14 |
| G47A U125G | -2.16 |
